Experimental findings from US20200297834A1 are described below.

Experiment [1] addresses VEEV capsid (of VEEV TC-83, in infected Vero cells) (Venezuelan equine encephalitis virus, strain TC-83) (UniProt P05674). Put plainly: confocal microscopy, line scan of z-stack, VEEV TC-83 infected Vero cells, 16 h.
Experiment [2] addresses VEEV E2 (of VEEV TC-83, in infected Vero cells) (Venezuelan equine encephalitis virus, strain TC-83) (UniProt P05674). The experiment is described as above.

In experiment [1], PKCδ (endogenous, Vero cells) gave a Pearson's correlation (co-localization) of 0.771.

Turning to PKCδ (endogenous, Vero cells) (enzyme), in experiment [2], the Pearson's correlation (co-localization) was 0.581.
